# Source: IntAct's records for PubMed 20098421
# B1: Trinucleotide repeat-containing gene 6C protein (Homo sapiens), Q9HCJ0 (parent)
# chain: MEEKKKKKQEEKKKKEGAQKKAADQKTKVPEPTKTCSSQPQPAGTSTSTSTSTISSSNNGKRASASGQQPAASRYLPREVPPRFRQQEQKQLLKRGQPLPTGTLTSVSPTQGAGPAGVSPPPLPGAGTQHHPSKLQPDLSHSGLADHYENSHWGQQPTYRSEANCSWDKVIIDRTDKEAWPSITGTETESASECTTDTDSASNCGSENSSMATGSAQGNFTGHTKKTNGNNGTNGALVQSPSNQSALGAGGANSNGSAARVWGVATGSSSGLAHCSVSGGDGKMDTMIGDGRSQNCWGASNSNAGINLNLNPNANPAAWPVLGHEGTVATGNPSSICSPVSAIGQNMGNQNGNPTGTLGAWGNLLPQESTEPQTSTSQNVSFSAQPQNLNTDGPNNTNPMNSSPNPINAMQTNGLPNWGMAVGMGAIIPPHLQGLPGANGSSVSQVSGGSAEGISNSVWGLSPGNPATGNSNSGFSQGNGDTVNSALSAKQNGSSSAVQKEGSGGNAWDSGPPAGPGILAWGRGSGNNGVGNIHSGAWGHPSRSTSNGVNGEWGKPPNQHSNSDINGKGSTGWESPSVTSQNPTVQPGGEHMNSWAKAASSGTTASEGSSDGSGNHNEGSTGREGTGEGRRRDKGIIDQGHIQLPRNDLDPRVLSNTGWGQTPVKQNTAWEFEESPRSERKNDNGTEAWGCAATQASNSGGKNDGSIMNSTNTSSVSGWVNAPPAAVPANTGWGDSNNKAPSGPGVWGDSISSTAVSTAAAAKSGHAWSGAANQEDKSPTWGEPPKPKSQHWGDGQRSNPAWSAGGGDWADSSSVLGHLGDGKKNGSGWDADSNRSGSGWNDTTRSGNSGWGNSTNTKANPGTNWGETLKPGPQQNWASKPQDNNVSNWGGAASVKQTGTGWIGGPVPVKQKDSSEATGWEEPSPPSIRRKMEIDDGTSAWGDPSNYNNKTVNMWDRNNPVIQSSTTTNTTTTTTTTTSNTTHRVETPPPHQAGTQLNRSPLLGPVSSGWGEMPNVHSKTENSWGEPSSPSTLVDNGTAAWGKPPSSGSGWGDHPAEPPVAFGRAGAPVAASALCKPASKSMQEGWGSGGDEMNLSTSQWEDEEGDVWNNAASQESTSSCSSWGNAPKKGLQKGMKTSGKQDEAWIMSRLIKQLTDMGFPREPAEEALKSNNMNLDQAMSALLEKKVDVDKRGLGVTDHNGMAAKPLGCRPPISKESSVDRPTFLDKDGGLVEEPTPSPFLPSPSLKLPLSHSALPSQALGGIASGLGMQNLNSSRQIPSGNLGMFGNSGAAQARTMQQPPQPPVQPLNSSQPSLRAQVPQFLSPQVQAQLLQFAAKNIGLNPALLTSPINPQHMTMLNQLYQLQLAYQRLQIQQQMLQAQRNVSGSMRQQEQQVARTITNLQQQIQQHQRQLAQALLVKQPPPPPPPPHLSLHPSAGKSAMDSFPSHPQTPGLPDLQTKEQQSSPNTFAPYPLAGLNPNMNVNSMDMTGGLSVKDPSQSQSRLPQWTHPNSMDNLPSAASPLEQNPSKHGAIPGGLSIGPPGKSSIDDSYGRYDLIQNSESPASPPVAVPHSWSRAKSDSDKISNGSSINWPPEFHPGVPWKGLQNIDPENDPDVTPGSVPTGPTINTTIQDVNRYLLKSGGSSPPSSQNATLPSSSAWPLSASGYSSSFSSIASAPSVAGKLSDIKSTWSSGPTSHTQASLSHELWKVPRNSTAPTRPPPGLTNPKPSSTWGASPLGWTSSYSSGSAWSTDTSGRTSSWLVLRNLTPQIDGSTLRTLCLQHGPLITFHLNLTQGNAVVRYSSKEEAAKAQKSLHMCVLGNTTILAEFAGEEEVNRFLAQGQALPPTSSWQSSSASSQPRLSAAGSSHGLVRSDAGHWNAPCLGGKGSSELLWGGVPQYSSSLWGPPSADDSRVIGSPTPLTTLLPGDLLSGESL
# B2: Trinucleotide repeat-containing gene 6C protein (Homo sapiens), Q9HCJ0-1 (parent)
# chain: MATGSAQGNFTGHTKKTNGNNGTNGALVQSPSNQSALGAGGANSNGSAARVWGVATGSSSGLAHCSVSGGDGKMDTMIGDGRSQNCWGASNSNAGINLNLNPNANPAAWPVLGHEGTVATGNPSSICSPVSAIGQNMGNQNGNPTGTLGAWGNLLPQESTEPQTSTSQNVSFSAQPQNLNTDGPNNTNPMNSSPNPINAMQTNGLPNWGMAVGMGAIIPPHLQGLPGANGSSVSQVSGGSAEGISNSVWGLSPGNPATGNSNSGFSQGNGDTVNSALSAKQNGSSSAVQKEGSGGNAWDSGPPAGPGILAWGRGSGNNGVGNIHSGAWGHPSRSTSNGVNGEWGKPPNQHSNSDINGKGSTGWESPSVTSQNPTVQPGGEHMNSWAKAASSGTTASEGSSDGSGNHNEGSTGREGTGEGRRRDKGIIDQGHIQLPRNDLDPRVLSNTGWGQTPVKQNTAWEFEESPRSERKNDNGTEAWGCAATQASNSGGKNDGSIMNSTNTSSVSGWVNAPPAAVPANTGWGDSNNKAPSGPGVWGDSISSTAVSTAAAAKSGHAWSGAANQEDKSPTWGEPPKPKSQHWGDGQRSNPAWSAGGGDWADSSSVLGHLGDGKKNGSGWDADSNRSGSGWNDTTRSGNSGWGNSTNTKANPGTNWGETLKPGPQQNWASKPQDNNVSNWGGAASVKQTGTGWIGGPVPVKQKDSSEATGWEEPSPPSIRRKMEIDDGTSAWGDPSNYNNKTVNMWDRNNPVIQSSTTTNTTTTTTTTTSNTTHRVETPPPHQAGTQLNRSPLLGPGRKVSSGWGEMPNVHSKTENSWGEPSSPSTLVDNGTAAWGKPPSSGSGWGDHPAEPPVAFGRAGAPVAASALCKPASKSMQEGWGSGGDEMNLSTSQWEDEEGDVWNNAASQESTSSCSSWGNAPKKGLQKGMKTSGKQDEAWIMSRLIKQLTDMGFPREPAEEALKSNNMNLDQAMSALLEKKVDVDKRGLGVTDHNGMAAKPLGCRPPISKESSVDRPTFLDKDGGLVEEPTPSPFLPSPSLKLPLSHSALPSQALGGIASGLGMQNLNSSRQIPSGNLGMFGNSGAAQARTMQQPPQPPVQPLNSSQPSLRAQVPQFLSPQVQAQLLQFAAKNIGLNPALLTSPINPQHMTMLNQLYQLQLAYQRLQIQQQMLQAQRNVSGSMRQQEQQVARTITNLQQQIQQHQRQLAQALLVKQPPPPPPPPHLSLHPSAGKSAMDSFPSHPQTPGLPDLQTKEQQSSPNTFAPYPLAGLNPNMNVNSMDMTGGLSVKDPSQSQSRLPQWTHPNSMDNLPSAASPLEQNPSKHGAIPGGLSIGPPGKSSIDDSYGRYDLIQNSESPASPPVAVPHSWSRAKSDSDKISNGSSINWPPEFHPGVPWKGLQNIDPENDPDVTPGSVPTGPTINTTIQDVNRYLLKSGGKLSDIKSTWSSGPTSHTQASLSHELWKVPRNSTAPTRPPPGLTNPKPSSTWGASPLGWTSSYSSGSAWSTDTSGRTSSWLVLRNLTPQIDGSTLRTLCLQHGPLITFHLNLTQGNAVVRYSSKEEAAKAQKSLHMCVLGNTTILAEFAGEEEVNRFLAQGQALPPTSSWQSSSASSQPRLSAAGSSHGLVRSDAGHWNAPCLGGKGSSELLWGGVPQYSSSLWGPPSADDSRVIGSPTPLTTLLPGDLLSGESL
# Variants of: B1
# Settings: with pabp1_human PABPC1, P11940
row,Variant,effect of a mutation on the interaction
1,E1595A;F1596A,disrupting interaction
2,W1602A;K1603A,disrupting interaction

# Variants of: B2
# Settings: with pabp1_human PABPC1, P11940
# Target sequence in this assay (P11940 whole entry): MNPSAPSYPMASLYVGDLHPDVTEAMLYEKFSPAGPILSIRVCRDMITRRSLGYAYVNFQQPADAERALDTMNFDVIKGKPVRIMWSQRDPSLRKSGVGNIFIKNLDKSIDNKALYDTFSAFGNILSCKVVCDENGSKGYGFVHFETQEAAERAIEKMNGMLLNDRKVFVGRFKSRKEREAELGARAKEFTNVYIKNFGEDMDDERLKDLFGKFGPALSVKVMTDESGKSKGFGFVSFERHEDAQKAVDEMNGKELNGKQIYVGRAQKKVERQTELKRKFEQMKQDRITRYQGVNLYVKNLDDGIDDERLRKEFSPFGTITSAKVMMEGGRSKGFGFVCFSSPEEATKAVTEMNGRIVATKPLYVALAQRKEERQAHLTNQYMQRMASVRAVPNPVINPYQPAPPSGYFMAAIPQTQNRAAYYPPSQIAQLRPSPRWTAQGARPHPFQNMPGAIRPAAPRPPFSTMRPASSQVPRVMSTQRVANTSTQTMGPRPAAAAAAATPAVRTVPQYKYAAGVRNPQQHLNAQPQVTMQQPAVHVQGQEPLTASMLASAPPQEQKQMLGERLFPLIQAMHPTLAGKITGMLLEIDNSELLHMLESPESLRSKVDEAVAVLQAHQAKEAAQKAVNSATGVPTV
row,Variant,effect of a mutation on the interaction
1,E1388A;F1389A;W1395A;K1396A,disrupting interaction
